# From US20210395718A1, “NOVEL KETOSE 3-EPIMERASE” (NATIONAL UNIVERSITY CORPORATION KAGAWA UNIVERSITY, priority 2018, published 2021)
# B1: Mutant enzyme Sequence information 3: mutant having Sequence 3 (SEQ ID NO: 3), 78.5% amino acid sequence identity to Sequence 1 (protein)
# chain: MNIGCHGLVWTGTFDADGIRLAVEKTKQAGFDLIEFPLMDPFSFDVAAAQAALAEHGLAVSASLGLSDETDITSSDPAVVAAGEALLLRAVDVLAELGGTHFCGVIYSAMKKYMDPVTPEGLASSRRTIARVADHAAERGVSVSLEVVNRYETNVLNTARQALAYLGEVDRPNLGIHLDTYHMNIEESDMFAPVLDAAPALRYVHIGESHRGYLGTGTVDFDTFFKALGRIGYDGPIVFESFSSAVVAPDLSRMLGIWRNLWTDNDELGAHANAYIRDKLVAVDSIRLH
# Assays:
# Type in all cases: biochemical
# [1] = Ketose 3-epimerase activity ratio (T70/T50) at reaction temperature of 70° C. to 50° C.; conditions: crude recombinant enzyme; ratio of activity at 70° C. to activity at 50° C., 10 min reaction
# Summary of the method: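 Crude recombinant enzyme activity measured at 70° C. and at 50° C. in 10-minute reactions under the optimum-temperature assay conditions. Value is the ratio of the two activities (T70/T50).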
# [2] = Optimum reaction temperature / relative activity at various reaction temperatures; conditions: crude recombinant enzyme
# Procedure: (§1) For the measurement of the activity of a ketose 3-epimerase as a crude enzyme and a purified enzyme, an enzyme reaction was made by performing an experiment similar to Experiment 4. An enzyme reaction was made for 10 minutes under various conditions and an enzyme amount preparing 1 μmol of D-fructose from D-allulose per minute was defined as 1 unit. After the reaction, the reaction mixture was put in a boiling liquid for 3 minutes to terminate the reaction. After deionization treatment, the D-fructose thus prepared was measured by HPLC analysis.
# Reaction conditions are shown in Table 1 under which the reaction was made at various temperatures within from 50 to 80° C. to find an optimum temperature.
# [3] = Thermal stability: residual activity after incubation at 60° C. for one hour; conditions: crude recombinant enzyme; activity at 60° C. (10 min reaction) = 100; unit not given
# Summary of the method: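 Crude recombinant enzyme held 1 h at 60 °C in 50 mM tris-HCl pH 7.5 with 2 mM MgCl2, chilled 10 min on ice, then residual activity measured by the standard method. Expressed relative to activity at 60 °C under the 10-min optimum-temperature reaction conditions, set as 100.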
# [4] = Ketose 3-epimerase activity of crude enzyme (D-allulose to D-fructose, HPLC); conditions: crude recombinant enzyme
# Procedure: The activity of an enzyme ketose 3-epimerase before purification was obtained by measuring the preparation amount of D-fructose with D-allulose as a substrate. More specifically, an enzymatic reaction solution composed of a 50 mM tris-HCl buffer (pH 7.5), 0.1 M D-allulose, an enzyme solution, and 2 mM magnesium chloride is reacted at 70° C. for 10 minutes. The reaction mixture is boiled for 2 minutes to terminate the reaction and the solution composition after the reaction is measured by HPLC. One unit of enzyme activity is defined as an enzyme amount that epimerizes D-allulose to prepare 1 μmol of D-fructose per minute under the above-described conditions. An enzyme unit for epimerization of D-fructose into D-allulose, which is a reverse reaction, is also measured under similar conditions and defined similarly.
# as §1, with “analysis. […]” for “analysis.”
# [5] = activity at optimum temperature = 100
molecule,measurement,setting,value
B1,T70/T50,[1],2.11
same,Optimum enzyme reaction temperature,"[2]; 10 min, 2 mM magnesium chloride, pH 7.5",70° ° C.
same,Relative activity at 60° C. (%),[2]; [5],75.8%
same,Relative activity at 70° C. (%),[2]; [5],100.0%
same,Relative activity at 80° C. (%),[2]; [5],31.2%
same,Residual activity after incubation at 60° C. for 1 hour,[3],38.2
same,Total activity per 100 mL of culture liquid (optimum reaction temperature),[4],1201 U
